Numbering of substitutions follows the chain as printed.

Data on 27 molecules can be found in patent US20230265179A1 (TWIST BIOSCIENCE, published 2023).

For the assay, the target named is T1, CD40L over-expressed on Expi293 cells (UniProt P29965 1-261, limits assumed).
T1 construct: whole, on cells; also called cytokine over-expressing Expi293 cells
T1 sequence (looked up): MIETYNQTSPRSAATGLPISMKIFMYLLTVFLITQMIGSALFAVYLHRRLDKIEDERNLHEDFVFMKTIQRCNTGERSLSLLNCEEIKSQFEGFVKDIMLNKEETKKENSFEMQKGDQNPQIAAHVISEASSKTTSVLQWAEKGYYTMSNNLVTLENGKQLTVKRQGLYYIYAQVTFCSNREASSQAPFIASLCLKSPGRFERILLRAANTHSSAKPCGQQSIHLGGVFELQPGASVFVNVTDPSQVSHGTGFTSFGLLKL
The experiment in a line: flow cytometry, 100 nM antibody, CD40L-Expi293 vs parent Expi293 cells.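 Note: ratio is the mean fluorescence intensity on CD40L-overexpressing Expi293 cells divided by the mean fluorescence intensity on parental Expi293 cells.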

Experimental: All incubations and washes were in buffer containing PBS+1% BSA. MFI Ratio is defined by the mean fluorescence intensity (MFI) of the cytokine over-expressing Expi293 cell over the Expi293 parent cell. […] EC50 was calculated in GraphPad Prism.

B1: CD40L-76 (VHH)
VHH: EVQLVESGGGLVQPGGSLRLSCAASGRTFSTSAMGWFRQAPGKEREWVATIYSRSGGGTAYADSVKGRFTISADNSKNTAYLQMNSLKPEDTAVYYCAKEGYDWGDYVMDYWGQGTLVTVSS
For the molecule B1, the “100 nM FACS (MFI Ratio)” value worked out at 9.6 ratio.

B2: CD40L-74 (VHH)
VHH: EVQLVESGGGLVQPGGSLRLSCAASGRTFSSYYMGWFRQAPGKERELVAVIYTSDGSTYYADSVKGRFTISADNSKNTAYLQMNSLKPEDTAVYYCAAWLNGGNRWGQGTLVTVSS
As for B2, the “100 nM FACS (MFI Ratio)” value came out at 8.7 ratio.

B3: CD40L-82 (VHH)
VHH: B2 VHH with T28I, S31T, Y33F, L47G, V50T, S54G, D55N, S57Y, Y59L
Regarding B3, the “100 nM FACS (MFI Ratio)” value is 18.6 ratio.

B4: CD40L-73 (VHH)
VHH: EVQLVESGGGLVQPGGSLRLSCAASGFTLGNYAMGWFRQAPGKEREFVASITSYGDTYYADSVKGRFTISADNSKNTAYLQMNSLKPEDTAVYYCARDGYTYGVDYWGQGTLVTVSS
Take B4: the “100 nM FACS (MFI Ratio)” value was 10.9 ratio.

B5: CD40L-103 (VHH)
VHH: EVQLVESGGGLVQPGGSLRLSCAASGRSFSSVYAMGWFRQAPGKEREFIAVIYWRDGSSLYADSVKGRFTISADNSKNTAYLQMNSLKPEDTAVYYCAAEPYGSGSSLISEYDWGQGTLVTVSS
B5: the “100 nM FACS (MFI Ratio)” value amounted to 3.6 ratio.

B6: CD40L-80 (VHH)
VHH: EVQLVESGGGLVQPGGSLRLSCAASGFTFDDYDMGWFRQAPGKERELVASITSGGSTNYADSVKGRFTISADNSKNTAYLQMNSLKPEDTAVYYCAIPHGIDLYTFDWGQGTLVTVSS
In the case of B6, the “100 nM FACS (MFI Ratio)” value stood at 4.6 ratio.

B7: CD40L-106 (VHH)
VHH: EVQLVESGGGLVQPGGSLRLSCAASGLTFNDYAMGWFRQAPGKEREFVAGITNGGGRTSYADSVKGRFTISADNSKNTAYLQMNSLKPEDTAVYYCAADVGPTVKWGQGTLVTVSS
Turning to B7, the “100 nM FACS (MFI Ratio)” value came to 2.7 ratio.

B8: CD40L-191 (antibody, V domains shown)
VH: EVQLLESGGGLVQPGGSLRLSCAASGFDFSDYEMSWVRQAPGKGLEWVSSITSEGGSTYYADSVKGRFTISRDNSKNTLYLQMNSLRAEDTAVYYCAKPDVLFDYWGQGTLVTVSS
VL: DIQMTQSPSSLSASVGDRVTITCSGNKLGDKYASWYQQKPGKAPKLLIYDTSKVASGVPSRFSGSGSGTDFTLTISSLQPEDFATYYCQQSYETPLTFGQGTKVEIK
notes: IgG2
In the case of B8, the “100 nM FACS (MFI Ratio)” value was found to be 9.7 ratio.

B9: CD40L-186 (antibody, V domains shown)
VH: B8 VH
VL: DIQMTQSPSSLSASVGDRVTITCRASQGVRTSLAWYQQKPGKAPKLLIYENNNRPSGVPSRFSGSGSGTDFTLTISSLQPEDFATYYCSQSTHVPPTFGQGTKVEIK
notes: IgG2
Regarding B9, the “100 nM FACS (MFI Ratio)” value was 2.7 ratio.

B10: CD40L-189 (antibody, V domains shown)
VH: B8 VH with V101K, L102T
VL: DIQMTQSPSSLSASVGDRVTITCSGDTLGGKYAWWYQQKPGKAPKLLIYDNTNRPSGVPSRFSGSGSGTDFTLTISSLQPEDFATYYCQAWDNSAVIFGQGTKVEIK
notes: IgG2
For the molecule B10, the “100 nM FACS (MFI Ratio)” value came out at 4.7 ratio.

B11: CD40L-197 (antibody, V domains shown)
VH: B8 VH with D100G, V101R, L102D
VL: DIQMTQSPSSLSASVGDRVTITCRTSQDIGNYLNWYQQKPGKAPKLLIYYDVNRPSGVPSRFSGSGSGTDFTLTISSLQPEDFATYYCQPSFYFPYTFGQGTKVEIK
notes: IgG2
Take B11: the “100 nM FACS (MFI Ratio)” value came to 3.6 ratio.

B12: CD40L-201 (antibody, V domains shown)
VH: B8 VH with D28T, S30A, D31S, S35T
VL: DIQMTQSPSSLSASVGDRVTITCSGDNLRGYYASWYQQKPGKAPKLLIYGTSDLQSGVPSRFSGSGSGTDFTLTISSLQPEDFATYYCQAWDTNTVIFGQGTKVEIK
notes: IgG2
With B12, the “100 nM FACS (MFI Ratio)” value worked out at 6.9 ratio.

B13: CD40L-187 (antibody, V domains shown)
VH: B8 VH with D100G, V101K, L102N
VL: DIQMTQSPSSLSASVGDRVTITCRASSSVSYMHWYQQKPGKAPKLLIYHTSRLQSGVPSRFSGSGSGTDFTLTISSLQPEDFATYYCSAFTHNSDVFGQGTKVEIK
notes: IgG2
As to B13, the “100 nM FACS (MFI Ratio)” value was found to be 2.3 ratio.

B14: CD40L-194 (antibody, V domains shown)
VH: B8 VH with D28T, S30E, Y32T, S35D
VL: DIQMTQSPSSLSASVGDRVTITCRASQNINYYLNWYQQKPGKAPKLLIYQNDKRPSGVPSRFSGSGSGTDFTLTISSLQPEDFATYYCQQSYENPLTFGQGTKVEIK
notes: IgG2
Consider B14, for which the “100 nM FACS (MFI Ratio)” value is 7.3 ratio.

B15: CD40L-178 (antibody, V domains shown)
VH: B8 VH with D28T, S30E, E33Q, S35G, D100G, V101R, L102D
VL: DIQMTQSPSSLSASVGDRVTITCRASQPIVRNLRWYQQKPGKAPKLLIYGASSLESGVPSRFSGSGSGTDFTLTISSLQPEDFATYYCLQNVANPATFGQGTKVEIK
notes: IgG2
For B15, the “100 nM FACS (MFI Ratio)” value stood at 6.4 ratio.

B16: CD40L-185 (antibody, V domains shown)
VH: B8 VH with V101Q, L102F, F103L
VL: DIQMTQSPSSLSASVGDRVTITCRASQTIERRLNWYQQKPGKAPKLLIYGTTSLESGVPSRFSGSGSGTDFTLTISSLQPEDFATYYCHHWHHNPTHHETNVFGQGTKVEIK
notes: IgG2
With B16, the “100 nM FACS (MFI Ratio)” value was 4.5 ratio.

B17: CD40L-179 (antibody, V domains shown)
VH: B8 VH
VL: DIQMTQSPSSLSASVGDRVTITCRASQSILSYLNWYQQKPGKAPKLLIYGTSKLASGVPSRFSGSGSGTDFTLTISSLQPEDFATYYCQSYDNDFYGTVFGQGTKVEIK
notes: IgG2
In the case of B17, the “100 nM FACS (MFI Ratio)” value was 3.1 ratio.

B18: CD40L-202 (antibody, V domains shown)
VH: B8 VH with D28T, S30A, D31S, S35T
VL: DIQMTQSPSSLSASVGDRVTITCRASQDIYQNLDWYQQKPGKAPKLLIYQDFKRPSGVPSRFSGSGSGTDFTLTISSLQPEDFATYYCQAWDNGAAVFGQGTKVEIK
notes: IgG2
Regarding B18, the “100 nM FACS (MFI Ratio)” value was 14.2 ratio.

B19: CD40L-177 (antibody, V domains shown)
VH: B8 VH with D28T, S30A, D31S, S35T
VL: DIQMTQSPSSLSASVGDRVTITCRASQDVSSGVAWYQQKPGKAPKLLIYDASNLQSGVPSRFSGSGSGTDFTLTISSLQPEDFATYYCSQSTRVPPTFGQGTKVEIK
notes: IgG2
As to B19, the “100 nM FACS (MFI Ratio)” value is 8.9 ratio.

B20: CD40L-172 (antibody, V domains shown)
VH: B8 VH
VL: DIQMTQSPSSLSASVGDRVTITCKASQHVITHVTWYQQKPGKAPKLLIYGTSDLQSGVPSRFSGSGSGTDFTLTISSLQPEDFATYYCQQSNSWPYTFGQGTKVEIK
notes: IgG2
As to B20, the “100 nM FACS (MFI Ratio)” value was 0.5 ratio.

B21: CD40L-171 (antibody, V domains shown)
VH: B8 VH with V101Q, L102F
VL: DIQMTQSPSSLSASVGDRVTITCRASSSVSYMHWYQQKPGKAPKLLIYQNDKRPSGVPSRFSGSGSGTDFTLTISSLQPEDFATYYCQQHYSPSHTFGQGTKVEIK
notes: IgG2
Regarding B21, the “100 nM FACS (MFI Ratio)” value came to 0.4 ratio.

B22: CD40L-195 (antibody, V domains shown)
VH: B8 VH with D100G, V101R
VL: DIQMTQSPSSLSASVGDRVTITCSGDNIGSIYASWYQQKPGKAPKLLIYQNDKRPSGVPSRFSGSGSGTDFTLTISSLQPEDFATYYCQQGYNSNDVDNVFGQGTKVEIK
notes: IgG2
Take B22: the “100 nM FACS (MFI Ratio)” value came to 16.8 ratio.

B23: CD40L-174 (antibody, V domains shown)
VH: B8 VH with D100G, V101R
VL: DIQMTQSPSSLSASVGDRVTITCRASESVEYHGTSLMHWYQQKPGKAPKLLIYGRNKRPSGVPSRFSGSGSGTDFTLTISSLQPEDFATYYCQAWDRDTGVFGQGTKVEIK
notes: IgG2
Turning to B23, the “100 nM FACS (MFI Ratio)” value is 0.4 ratio.

B24: CD40L-203 (antibody, V domains shown)
VH: EVQLLESGGGLVQPGGSLRLSCAASGGYNFRDYMHWVRQAPGKGLEWVAEIRNKANNHATKYADSVKGRFTISRDNSKNTLYLQMNSLRAEDTAVYYCAKNLGQGFDYWGQGTLVTVSS
VL: DIQMTQSPSSLSASVGDRVTITCRASQSISSYVNWYQQKPGKAPKLLIYANTNGPSGVPSRFSGSGSGTDFTLTISSLQPEDFATYYCQSYDNSVRGSRVFGQGTKVEIK
notes: IgG2
B24: the “100 nM FACS (MFI Ratio)” value stood at 6.7 ratio.

B25: CD40L-84 (VHH)
VHH: EVQLVESGGGLVQPGGSLRLSCAASGRISNINIMGWFRQAPGKEREFVAGISQSGGSTAYADSVKGRFTISADNSKNTAYLQMNSLKPEDTAVYYCSRDEKLGPYYFDYWGQGTLVTVSS
With B25, the “100 nM FACS (MFI Ratio)” value worked out at 12.7 ratio.

B26: CD40L-173 (antibody, V domains shown)
VH: EVQLLESGGGLVQPGGSLRLSCAASGGYNFRDYMHWVRQAPGKGLEWVATISGGGINTYYPDSVKGRFTISRDNSKNTLYLQMNSLRAEDTAVYYCAKDLGQGFDYWGQGTLVTVSS
VL: DIQMTQSPSSLSASVGDRVTITCQSSQSVYSNNELSWYQQKPGKAPKLLIYGRNKRPSGVPSRFSGSGSGTDFTLTISSLQPEDFATYYCSQGTHVPPTFGQGTKVEIK
notes: IgG2
In the case of B26, the “100 nM FACS (MFI Ratio)” value was found to be 0.4 ratio.

B27: CD40L-183 (antibody, V domains shown)
VH: B26 VH with A49S, T50S, S52V, G53S, G54S, I56G, N57L, Y59L, P61A
VL: DIQMTQSPSSLSASVGDRVTITCTGDKLAEKYVSWYQQKPGKAPKLLIYQNDKRPSGVPSRFSGSGSGTDFTLTISSLQPEDFATYYCQQSYSRPYTFGQGTKVEIK
notes: IgG2
With B27, the “100 nM FACS (MFI Ratio)” value amounted to 3.6 ratio.
